# Measurements reported in the RNAGym collection of RNA variant scans (doi:10.7554/elife.90254).
# B1: OR4K15 (parent)
# chain: GUUAACGGUCAUAGGCCAUGGAAACUAGGAGCACCAUUUCGCUGCCAGUGAAGAAAUGAACAAAGAAAAUCUGGGCCAGGCAGGCAUCAAAAGAAAUAGUCUUGCGCUCAACCAGAAAGUCUGUAAUCAUUUUAAGGGUA
# Variants of: B1
# Experiment: self-cleavage, relative activity (ratio to wild type); higher = more cleavage; in vitro, sequencing; the parent is a self-cleaving ribozyme
row,Variant,self-cleavage
1,A24G A91U,1.61
2,A24G A64U,1.51
3,A24G G80C,0.1
4,C25U U72C,0.4
5,A24G A78G,0.21
6,A24G A78U,0.39
7,U26C A30G,1.25
8,U26C A69C,1.74
9,A24G A96U,0.93
10,A24G U39A,1.45
11,A24G A63G,1.17
12,A24U A67U,1.89
13,A24U U49C,0.58
14,C25U U49C,1.45
15,U26C A60U,1.43
16,U26C A27C,2.1
17,A24G G79A,0.18
18,A24G U26C,0.81
19,U26A U37C,0.43
20,A24G U122A,1.19
21,A24G U122C,0.84
22,C25U U100C,2.01
23,A24G U131A,1.22
24,A24G A90G,1.03

row,Variant,self-cleavage
1,U26C A33G,0.84
2,U26A A89G,1.53
3,A24G A116G,0.61
4,C25A A33G,0.9
5,C25U A118G,0.68
6,A24U A55U,0.93
7,A24U A116G,0.78
8,U26A A59G,1.18
9,U26C A62G,1.47
10,C25U A51G,2.48
11,A24U C105U,0.17
12,A24G G75A,0.15
13,A24G C88U,0.95
14,A24U A59G,1.28
15,A24G G58A,0.4
16,A24G G41A,1.45
17,A24G G41U,1.18
18,C25U A30G,1.24
19,A24G U87C,1.18
20,A24G U70C,0.53
21,C25U A86G,1.2
22,C25U A86U,0.61
23,A24U A117G,1.85
24,A24G C105U,0.26

row,Variant,self-cleavage
1,A24G A95U,1.16
2,A24G A114U,0.19
3,A24U U103C,0.25
4,A24U A78G,0.38
5,A24G C85G,0.97
6,A24G C85U,0.95
7,U26C A47G,1.24
8,A24G U43C,1.37
9,A24G U43A,1.29
10,U26A A66C,0.9
11,A24U,1.41
12,A24U A114C,0.04
13,A24U A114U,0.22
14,A24U A52G,1.32
15,A24G A125G,0.43
16,A24U A96G,0.87
17,U26C A82G,0.5
18,U26A A62G,1.75
19,U26C A78G,0.21
20,U26C A78U,0.21
21,A24G A98G,0.51
22,A24G A98U,1.74
23,A24U U131A,0.43
24,U26A A110G,0.22

row,Variant,self-cleavage
1,A24G G104A,0.04
2,A24G U57C,1.51
3,C25A A95G,0.89
4,A24U U108C,0.02
5,A24U U108A,0.07
6,A24U G28C,1.02
7,A24U U127C,1.36
8,A24U A111G,0.03
9,A24G A111U,0.19
10,A24G A111C,0.02
11,A24G U127A,1.53
12,A24G A126U,0.98
13,A24U A126G,1.15
14,A24G C112U,0.02
15,A24G U108C,0.03
16,A24G U108A,0.04
17,U26C A89U,0.5
18,C25U A47U,1.35
19,A24G U97A,1.79
20,A24G U102C,1.48
21,A24G U102A,0.51
22,A24G A68G,1.01
23,A24G A68C,1.49
24,A24U A56G,2.25

row,Variant,self-cleavage
1,U26A A118G,0.34
2,C25A A135G,1.61
3,U26C A66G,0.9
4,A24U C76U,0.06
5,A24G A66G,0.73
6,A24G A66U,1.11
7,A24U U97G,1.9
8,A24U A89G,0.56
9,C25U A94U,1.62
10,U26A A117G,1.78
11,A24G U120C,0.35
12,U26A U122A,0.73
13,U26A U122C,0.72
14,A24G A59G,1.23
15,A24G A59C,0
16,U26A A56G,1.7
17,A24G A67G,1.32
18,A24G A82U,0.31
19,A24G G93A,0.88
20,A24U A95G,1.95
21,C25U A82G,0.05
22,A24G G28A,1.11
23,C25U A89C,1.42
24,U26A A63C,1.71

row,Variant,self-cleavage
1,U26A A63U,2.02
2,C25U A56G,0.46
3,U26C A52U,0.88
4,U26C A52G,1.82
5,A24G G123A,1.48
6,A24G U130G,0.56
7,A24G U130C,1.38
8,A24U U100A,0.31
9,A24G G138A,1.18
10,A24G U72C,0.27
11,C25U A33G,1.12
12,C25U A60G,1.88
13,C25A U122A,0.94
14,C25G,1.1
15,C25U,1.3
16,C25A,0.92
17,U26A A54C,1.61
18,A24G A86G,1.19
19,A24U A62G,2.33
20,A24G A118G,1.01
21,A24G A118U,0.51
22,A24G U38C,1.46
23,A24G A92U,1.45
24,C25U A92G,0.6

row,Variant,self-cleavage
1,U26A A78G,0.17
2,U26A A78U,0.43
3,A24U U120C,0.8
4,U26A U139A,1.05
5,A24G G136C,1.47
6,A24G A117G,1.45
7,A24U U133A,1.54
8,A24U C71A,0.49
9,A24G A60G,0.89
10,A24G A134U,0.93
11,A24G U100C,1.97
12,A24G A89G,0.78
13,A24G A89U,1.41
14,A24U U122C,1.08
15,U26C A51G,1.72
16,U26C,1.26
17,U26A,1.07
18,U26C A64G,0.74
19,A24G U37C,1.12
20,U26A A140G,2.37
21,A24G A110U,0.99
22,A24U U37C,1.82
23,A24G C77U,1.55
